Measurements: the nanobody polyreactivity screen of Harvey et al. (2022)

Assay: yeast display, Sf9 membrane polyspecificity reagent, FACS + sequencing; frameworks hold sequencing errors
Procedure, shortened: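 In a synthetic yeast display library (Saccharomyces cerevisiae BJ5465), nanobody expression was induced with galactose for 36–48 hours. FACS gates were set low and high (top ~1%) using anti-HA fluorescence for expression and streptavidin fluorescence for binding of the Sf9 membrane reagent. Each polyreactivity label is drawn from the gate of origin.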

Sequence	polyreactivity (PSR sort gate)
QVQLVESGGGLVQAGGSLRLSCAASGSIFRSNAMGWYRQAPGKEREVVAAISSRGGSTYYADSVKGRFTISRDNAKNTVYLQMNSLKPEDTAVYFCNKARYTVISYDEYDYWGQGTQVTVSS	high polyreactivity
QVQLVESGGGLVQAGGSLRLSCAASGSIFEENAMGWYRQAPGKERELVAAITIGGRTNYADSVKGRFTISRDNAKNTVYLQMNSLKPEDTAVYYCAADLSSNKFWRFWTRYYYWGQGTQVTVSS	low polyreactivity
QVQLVESGVGLVQAGGSLRVSCAASGLTFAYYDMGWYRQAPGKERELVAAITWNGGSTYYADSVKGRFTISRDNAKNTVYLQMNSLKPEDTAVYYCAASWGYGYSGRFDYWGQGTQVSVSS	high polyreactivity
QVQLVESGGGLVQAGGSLRLSCAASGITFVRYAMGWYRQATGKERELVAGISRGGSTNYADSVKGRFTISRDNAKNTVYLQMNSLKPEDTAVYYCNRVFTWRYGYRYEYWGQGTQVTVSS	high polyreactivity
QVQLVESGGGLVQAGGSLRLSCAASGIIFYLYAMGWYRQAPGKERELVAAISRRGGSTYYADSVKGRFTISRDNAKNTVYLQMNSLKPEDTAVYYCAATIGTFGYGYWGQGTQVTVSS	high polyreactivity
QVQLVESGGGLVQAGGSLRVSCAASGYFFHYHAMGWYRHAPGKEREFVAAISQGGGSTYYADSVKGRFTISRDNAKKTVSLQMISLKPEDTAVYYCAADYRSGYREMDYWGQGTQVTVSS	low polyreactivity
QVQLVESGGGLVQAGGSLRLSCAASGSTFVWYAMGWYRQAPGKEREFDATISWSDGSRYYADSVKGRFTISRDNAKNTVYLHMNSLKPEDPAVYYCASDVDRFFTYTYDYWGQGTQVTVSS	low polyreactivity
QVQLVESGGGLFQAGGSLRLSCAASGGIFDVYDMGWYRQAPGKERELVAAISEKGGSTYYADSVKGRFTISRDNAKNTGYLQMNSLKPEDTAVYYCAADYVCLSVFSYWAWYDYWGQGTQVNVSS	low polyreactivity
QVQLVESGGGLVQAGGSLRLSCAASGRTFTVYAMGGSRQAPGKERELVAGIRRGDSTYYADSVKGRFTISRDNAKNSVDFQMNSLKPEDTAVYYCNARSSGRSYYYWGQGTQVTVSS	high polyreactivity
QDQLVESRGGLVQAGGSLRLSCAAYGRTFIPYAMGWNSQATGKERELVAAITVRGSSTYYADSVKGRFTISRDNAKNTVYFQMNSLKPEDTAIYYCATDRRYRAFYYWGQGTQVTVSS	high polyreactivity
QLQLVESGGGLVQAGGSLRLSCAASGRIRYIAIGWYRQAPWKERELVAAITSSGGSTYYADSVKGRFTISRDNAKYTVDLQMNRLKPEDTAVYYCNAVASLSVDYWGQGTQVTVSS	high polyreactivity
QVQIVESGGGLVQAGGSLRLSCAASGFTFYYYAMGWYRQAPGKERELVAAIDTGGSTNYADSVKGRFTISRDNAKNTVYLQMNRLKPEDTSVYYCNADTPDHYGHYDYWGQGTQVTVSS	low polyreactivity
QVQLVESAGGLVQAGGSLRLSCAASGYIFQYYAMGWYRQAPGKERELVAAITSGGSTYYADSVKGRFTISRDNAKNTVYLQMNSLKPEDTAVYYCAAHLLHYRGDYWGQGTQVTVSS	high polyreactivity
QVQLVESGGRLVQAGGSLRLSCAASGLTFVYNTMGWYSQAPGKERKLVAAISSSGGTTYYADSVKGRFTISRDNAKNTVYLQMNSLKPEDTAVYYCAARPSGGYESTRTRDYWGQGTQVTVSS	low polyreactivity
QVQLVESGGGLVQAGGSLRLSCAASGRTLVKYAMGWYRQAPGKERELVAAITQRGGITYYADSVKGRFTISRDNAKNTVYLQMNSLKPEDTAVYYFAASLYSYRSPYTFYYWGQGTQVTVSS	high polyreactivity
QVQLVESGGGIVQAGGSLRLTCAASGRIFRSYAMGWYRQAPGKERELVATITWSGTSTYADSVKGRFTISRDNAKNTVYLQMNSLKPEDTAVYYCAAVALFPKYRYYSWGQGTQVTVSS	high polyreactivity
QVQLVESGGGLVQAGGSLSLSCAASGSIFWYNAMGWYRQAPGKERELVAGITSGGDTNYADSVKGRFTISRDNAKNTFYLQMNSLKPEDTAVYYCNTPSGPGNVGYYRRKWYGYWGQGTQVSVSS	low polyreactivity
QVQLVESGGGLVQAGGSLRLSCAASGRIFLIYTMGWYRQAPGKERELVASITFRSGSTYYADSVKGRFTISRDNAKNTVYLQMNSLKPEDTAVYYCAADRGVLNQFDYWGQGTQVTVSS	low polyreactivity
QVQLVESGGGLVQAGGSLRLSCAASGRTFWYYGMGWYRQAPGKERELVAAIRGSGGSTYYADSVKGRFTISRDNAKNTVYLQMNSLKPEDTAVYYCAKRSYIRPKYTYEYWGQGTQVTVSS	high polyreactivity
QVQLVESGGGLVQAGGSLRLSCAASGSTIRANAMGWYRQAPGKERELVAAITKNGGSTYYADSVKGRFTISRDNAKNTVYLQMNSLKPEDTAVYYCAARRSSRRPPYYYWGQGTQVTVSS	high polyreactivity
QVQLVESGGGLVQAGGSLRISCAASGSILFGNAMGWYRQAPGKERELVAAITVSGGSTYYADSVKGRFTISRDNAKNTVYLQMNSLKPEDTAVYYCAAVSLFRDSQFDYWGQGTQVTVSS	low polyreactivity
QDQLVESVGGLVQAGCSLRLSSAASVSIFVIYAMGWYRQAPGNERELVAAISWNGGSTFYADSVKGRITISRDNAKNTVYLQMNSQKPEDTAVYYCNTVASYYRWKSYYYWGQGTQVTVSS	high polyreactivity

Sequence	polyreactivity (PSR sort gate)
QVQLVESGGCLVQAGGSLRLSCAASGFIFGYYAMGWYRPPPGKESELVAAISWSGVSTYYADSVKGRFTISRDNAKNTVYLQMNSLKPEDTAVYYCAVGYVLTGVFQARFDYWGQGTQATVSS	high polyreactivity
QVQLVESGGGLVQAGGSLRLSCAASGNIFDTYVMGWYRQAPGKERELVAAITSDGGTYYADSVKGRFTSSRDNATNPVYLQMNSRQPEDTAVYYCAADTYYYPIHDYWGQGTQVTVSS	low polyreactivity
QVQLVESGGGLVQAGGSLRLSCAASGFTFVRYTMGWYRQAPGKERELVAVIRRGGSTYYADSVKGRFTISRDNAKNTVYLPMKSLKPEDTAVYYCNALSALAVEDGYWGQGTQVTVSS	low polyreactivity
QVQLVESGGGLVQAGGSLRLSCAASGLIFPLYAMGWYRHAPGKERELVAAITSSGGSTYYADSVKGRFTISRDNAKNTVYLQMNSLKPEDTAVYYCAADYSVYWLDYGYWGQGTQVTVSS	low polyreactivity
QVQLVESGGGLVQAGGSLRLSCAASGSIFRYYAMGWYRQAPGKERELVAAISSSGDNTYYADSVKGRFTISRDNAKNTVYLQMNSLKPEDTAVYYCAVRGERRYIYDYWGQGTQVTVSS	high polyreactivity
QVQLVESGGGLVQAGGSLRLSCAASGIIFTVYAMGWDRQAPGKERELVAAISFSTGRTYYADSVKGRFTISRDNAKNTVYLQMNSLKPEDTAVYYCAASAGHTFSKPFDRGRYGYWGQGTQVTVSS	high polyreactivity
QVQLVESGGGLVQAGGSLRLSCAASGSIFFYNAMGWYRQAPGKERELVAAITTRGGSTYYADSVKGRFTISRDNAMNTVYLQKNSLKPEDTAVYYCTADYYWTSLAMDSWGQGTQVTVSS	low polyreactivity
QVQLVESGGGLVQAGGSLRLSCAPSGISIIGYAMGWYRQAPGKVRELVASIDSGGITNYADSVKGRFTISRDNAKNTVYLQMNSLKPEDTAVYDCAARVAYFGGPYYSWGEGTQVTVSS	high polyreactivity
QLQLVESGGGLVQAGGSLRLSCAASGITFPFYDMGWYRQAPGKEREFVAAISWSAGNTYYADSVKGRFTISRDNAKNTVYLQMNSLKPEDTAVYYCAAYGPSYEEDYWGQGTQVTVSS	high polyreactivity
QVQLVESGGGLVQAGGSLRLSCAASGSTFRRYPMGGYRQAPGTERELVAGISSGGTTYYADSVKGRFTISRDNAKNSVYLQMNSLKPEDTAVYYCAKVLYLRSAQAYYYWGQGTQVTVSS	high polyreactivity
QVQLVESGGGLVQAGGSLRLSCAASGYIFWENAMGWYRPAPGKERELVAAITVSGGGTYYADSVKGRFTISRDNAKNTVYLQRNSLKPEDTAVYYCAADEDNPWLWFYYWGQGTQVTVSS	low polyreactivity
QVQLVESGGGLVQAGGSLRLSCAASGSTFWEYAMGWYRQAPGKEREFVAAISYRGGGTYYADSVKGRFTISRDNAKNTVYLQKNSLKPEDTAVYYCAARRWRGRYWGDYWGQGTQVTVSS	high polyreactivity
HVQLVESGGGLVQAGGRLRLSCAASGRNFVENAIGWYRQAPGKEWEFVAAISGGGSTDYADSVKGRFTISRDNAKNTVYLQMNSLKPEDTAVYYCNARQVFTTAGREMDYWGQGTQVTVSS	low polyreactivity
QVQLVESGGGLVQAGGSLRLSCGASGRIFGINAMGWYRQAPGKERELVAAITKSGGTTYYADSVKGRFTISRDNAKNTVYLQMNTLKPEDTAVYYCAAKGSVVYQLRYDYWGQGTQVTVSS	high polyreactivity
QVQLVESGGGLVQAGGSLRLSCAASGRIFHYYAMGWYRQAPGKERELVAAINSAGSTKYADSVKGRFTISRDNAKNTVYLQMNSLKPEDTAVYYCAAERGSRDGGYDYWGQGTQVTVSS	low polyreactivity
QVQLVESGGGLVQAGGSLRLSCAASGRISVVNAMGWYRQAPGQERELVAAIRRASTNYADSVKGRFTISRDNAKKTVYLQMNSLKPEDTAVYYCAARVYGINIFEYWGQATQVTVSS	high polyreactivity
QVQLVESGGGLVQAGGSLRLSCAASGSTYRDYAKGWYRQAPGKERELVASITSGSSTYYADSLKGRFTMSRDNAKNTVYLQMNSLKPEDTAVYYCATGRQYDLHRLRHDYWGQGTQVTVSS	low polyreactivity
QVQLEESGGGLVQAGGSHRLSCPASGRTFYKNAMGWSRQAPRKERELVAAITSGGSTNYADSVKGRFSISRDNAKNSVYLQMNSLKSEDTAVYYCAAQQFPYYRSRFSYINKYDYWGQGTQVTVSS	high polyreactivity
QVQLVESGGGLVQAGGSLRLSCAASGFTFERYAMGWYRQAPGKERELVAAITGSGGSTYYADSVKGRFTISRDNAKTTVYLQMNSLKPEDTAVYYCADYSAYYGCDYWGQGTQVTVSS	low polyreactivity
QVQLVESGGGLVQAGGSLRLSCAASGRTFPRNGMGWYRPAPGQERELVAAIRYSGGSTYYADSVKGRFTISRDNAKNTVYLQMNSLKPEDTAVYYCAAEYRRALGVDYWGQGTQVTVSS	high polyreactivity
QVQLVESGGGLVQAGGSLRLSCAASGSTLVRYALGLSRQAPGKERELVAAISRSGSSTYYADSVKGRFTISRDIAKNTVYLQMNSLKPEDTAVYYCATDRYPTTPYYNYRFGYWGQGTQVTVSS	high polyreactivity
